Results on 4 molecules are retold here after publication PMC3795039.

As a reminder, the Kd is the free concentration of one partner at which half of the binding sites on the other are occupied at equilibrium, for simple one-to-one binding. A low value points to tighter binding.

Test [1] concerns the target GST-NUP153C (human) (UniProt P49790). The experiment in a line: pull-down; 0.47 µM GST-NUP153C pre-bound to glutathione-sepharose beads, 0.8 µM his-tagged IN, PD buffer (150 mM NaCl, 25 mM Tris-HCl pH 7.4, 5 mM MgCl2, 5 mM DTT, 0.1% NP-40), BSA 5 µg, 2 h 4°C; Coomassie and anti-his blot.
Test [2] deals with HIV-1 CA-NC fusion protein assembled into tube-like complexes (HIV-1). As to the kind of experiment: co-sedimentation; purified tag-free NUP153C or GST incubated with assembled HIV-1 CA-NC complexes, pelleted through a sucrose cushion; Coomassie stain.
For test [3] the target is unchanged. The experiment in a line: co-sedimentation; competition: 4 µM purified WT or mutant NUP153C added to 0.8 µM assembled CA-NC and CPSF6-HA 293T extract; read-out is CPSF6 in the pellet.
For test [4], the target named is full length his-tagged wild-type HIV-1 CA (HIV-1 (NL4-3)). As to the kind of experiment: pull-down; Ni-NTA beads, 20 µM his-tagged CA or CAN, 0.5 µM purified NUP153C, 25 mM Tris-HCl pH 8.0, 150 mM NaCl, 0.1% NP-40, 1 h room temperature; Coomassie or SYPRO Ruby stain.
For test [5], the target named is his-tagged HIV-1 CAN Q63A/Q67A (HIV-1 (NL4-3)). The description is as above.
Test [6] addresses T1, his-tagged HIV-1 CA N-terminal domain (CAN) (HIV-1 (NL4-3)), P12493. The description is as above. The conditions noted are these: remark: other sources report otherwise.
Test [7] has as its target T1, his-tagged HIV-1 CA N-terminal domain …. As to the kind of experiment: pull-down; saturation curves: 3 µl Ni-NTA beads, 0.5 µM purified WT or mutant NUP153C, HIV-1 CAN from 2 µM to 200 µM in half-log steps, 150 mM NaCl, 25 mM Tris-HCl pH 8.0, 0.1% NP-40; percent bound by SYPRO Ruby; one-site saturation fit, Kd at half-maximal binding. The conditions noted are these: remark: other sources report otherwise.

Take his-tagged FIV integrase (IN) (enzyme): the percent of input pulled down in test [1] is 5.55%.

For “his-tagged HIV-1 integrase (IN) (enzyme)”, in test [1], the percent of input pulled down came out at 0.85%.

Molecule “recombinant tag-free NUP153C (residues 896–1475) (from UniProt P49790-1 896-1475) (domain or fragment)” gave a percent of input recovered in the pellet in test [2] of 40%. In addition, in test [3], the fold decrease of CPSF6 binding to CA-NC with 4 µM NUP153C turned out to be 7 fold. Besides, in test [4], the percent of input pulled down came to 30%. The fold decrease of binding against WT CAN in test [5] stood at 1.3 fold.

B1: recombinant tag-free NUP153C (residues 896–1475), P49790-1 896-1475 (domain or fragment)
chain: NSAASSSFKFGVSSSSSGPSQTLTSTGNFKFGDQGGFKIGVSSDSGSINPMSEGFKFSKPIGDFKFGVSSESKPEEVKKDSKNDNFKFGLSSGLSNPVSLTPFQFGVSNLGQEEKKEELPKSSSAGFSFGTGVINSTPAPANTIVTSENKSSFNLGTIETKSASVAPFTCKTSEAKKEEMPATKGGFSFGNVEPASLPSASVFVLGRTEEKQQEPVTSTSLVFGKKADNEEPKCQPVFSFGNSEQTKDENSSKSTFSFSMTKPSEKESEQPAKATFAFGAQTSTTADQGAAKPVFSFLNNSSSSSSTPATSAGGGIFGSSTSSSNPPVATFVFGQSSNPVSSSAFGNTAESSTSQSLLFSQDSKLATTSSTGTAVTPFVFGPGASSNNTTTSGFGFGATTTSSSAGSSFVFGTGPSAPSASPAFGANQTPTFGQSQGASQPNPPGFGSISSSTALFPTGSQPAPPTFGTVSSSSQPPVFGQQPSQSAFGSGTTPNSSSAFQFGSSTTNFNFTNNSPSGVFTFGANSSTPAASAQPSGSGGFPFNQSPAAFTVGSNGKNVFSSSGTSFSGRKIKTAVRRRK
The molecule B1 came in with a percent of input pulled down in test [6] of 30%. Besides, the Kd in test [7] was 28.3 µM.
